According to publication PMC11948038, “Evolutionary Pro‐To‐Thr Mutation in the Intrinsically Disordered Domain of ANP32 Family Members Modulates Their Target Binding Modes” (Advanced Science, 2025):

Assays:
cytochrome c [1] = molecular target: T1, cytochrome c (Homo sapiens, UniProt P99999); assay: ITC titration of full-length ANP32A or ANP32A1-167 with reduced Cc; assay type: binding; details: low ionic strength (25 mM)
T1 construct: obtained by immunizing male rabbits with full-length recombinant Cc; made in house; host or cells: E. coli BL21 (DE3)
Description: Isothermal titration calorimetry (ITC) experiments were performed using a Nano ITC Low Volume instrument (TA Instruments, USA). The reference cell was filled with distilled water. Titration experiments between reduced Cc and ANP32A or ANP32A1‐167 consisted of 17 injections of 2.91 µL of a 400 µM reduced Cc solution into the sample cell containing 50 µM ANP32A construct. Both Cc and ANP32A proteins were dialyzed against 10 mM sodium phosphate buffer pH 7.4. Assays performed at moderate ionic strength used the same experimental setup, but proteins were dialyzed against 20 mM sodium phosphate pH 7.4 with 50 mM NaCl. […] ANP32A, ANP32A230‐249 and ANP32B232‐251 titration data were analyzed using Origin 7.0 (OriginLab), employing a single‐ligand binding site model or a two‐ligand binding sites model. […] ANP32A1‐167 titration data was processed and analyzed using NanoAnalyze software (TA instruments).
ITC experiments were performed using a Nano ITC Low Volume instrument (TA Instruments, USA). […] ANP32A, ANP32A230-249 and ANP32B232-251 titration data was analyzed using Origin 7.0 (OriginLab), employing a single ligand binding site model or a two ligand binding sites model. […] ANP32A1-167 titration data were processed and analyzed using NanoAnalyze software (TA instruments).

15N-labeled Cc = assay: NMR titration (1H-15N HSQC) of 15N Cc with ANP32A or ANP32A1-167; assay type: binding; details: low ionic strength; 25 °C
Description: NMR titrations of 30 µM ^15N reduced Cc with ^14N ANP32A constructs were followed by 1D ^1H and 2D ^1H-^15N heteronuclear single quantum correlation (HSQC) spectra on a Bruker Avance-III 600 MHz equipped with a cryoprobe at 25 °C. ^15N-labelled reduced Cc (in 10 mM sodium phosphate buffer, pH 7.4) was titrated with increasing amounts of ^14N ANP32A dialyzed against the same buffer. Reduced ^15N Cc and ^14N ANP32A1-167 construct were titrated in 5 mM sodium phosphate buffer pH 6.4. To maintain the redox state of Cc and to adjust the lock signal on the NMR spectrometer, 0.1 mM of sodium ascorbate and 10% of D2O were added, respectively. Data were acquired and processed using TopSpin NMR 3.5pl7 software (Bruker).
Line broadening and chemical-shift perturbation analysis were performed using the Sparky 3 NMR assignment tool (T.D. Goddard and D.G. Kneller, University of California San Francisco, USA). Assignment of ANP32A230-249 and ANP32B232-251 peptides was performed using NMRFAM-SPARKY software distribution (National Magnetic Resonance Facility at Madison) and further imported to CCPNMR ^[1], whereby distance restraints were calculated using its built-in module.

cytochrome c [2] = molecular target: T1, cytochrome c; details: Cc-ANP32B, low ionic strength; ref [31]; cited from earlier work
Excerpt: Although both ANP32A and ANP32B interact with Cc via their C‐terminal region, there are remarkable differences in the thermodynamic parameters and binding surfaces between full‐length ANP32A and ANP32B in complex with Cc (Figure 3C,F).^[ [31] ^] […] These di ...

histone H3 = assay: Coimmunoprecipitation of c-myc-ANP32A/B with histone H3; assay type: binding; details: anti-c-myc, Western blot; representative of three experiments
Description: HEK293T cells were transfected with a plasmid encoding ANP32A/b-c-myc. 24 h after transfection, cells were collected for lysates preparation in buffer containing 20 mM Tris-HCl pH 7.5, 100 mM NaCl, 0.5% NP40, 0.1 mM PMSF and cOmplete™. Cells were lysed by sonication and precleared by incubation with sepharose-A beads (GE Healthcare, GE17-5280-01) for 1 h at 4 °C. The lysates were then incubated with anti-c-myc (see Pull-down assays) over night at 4 °C and subsequently with sepharose-A beads (GE Healthcare, GE17-5280-01) for 1 h at room temperature with rotation. Following 6 washes with PBS, the samples were resuspended in SDS loading buffer and analyzed by western blotting.

T1 sequence (P99999 whole entry): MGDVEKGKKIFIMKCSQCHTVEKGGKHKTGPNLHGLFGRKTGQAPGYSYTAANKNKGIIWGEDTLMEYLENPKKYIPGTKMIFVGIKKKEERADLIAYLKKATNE

Molecule | binding to Cc by ITC, in words (cytochrome c [1]) | chemical-shift perturbations of Cc amide signals, in words (15N-labeled Cc) | Kd (cytochrome c [2]) [µM] | –TΔS (cytochrome c [2]) [kcal/mol] | coimmunoprecipitation of histone H3, in words (histone H3)
ANP32A1‐167: ANP32A construct lacking its LCAR (protein) MEMGRRIHLELRNRTPSDVKELVLDNSRSNEGKLEGLTDEFEELEFLSTINVGLTSIANLPKLNKLKKLELSDNRVSGGLEVLAEKCPNLTHLNLSGNKIKDLSTIEPLKKLENLKSLDLFNCEVTNLNDYRENVFKLLPQLTYLDGYDRDDKEAPDSDAEGYVEGL | unable to interact with Cc even at low ionic strength | no significant chemical‐shift perturbations | – | – | –
ANP32B: acidic leucine‐rich nuclear phosphoprotein 32 B, histone chaperone, paralog of ANP32A (protein, UniProt Q92688 1-251, looked up) Acidic leucine-rich nuclear …: MDMKRRIHLELRNRTPAAVRELVLDNCKSNDGKIEGLTAEFVNLEFLSLINVGLISVSNLPKLPKLKKLELSENRIFGGLDMLAEKLPNLTHLNLSGNKLKDISTLEPLKKLECLKSLDLFNCEVTNLNDYRESVFKLLPQLTYLDGYDREDQEAPDSDAEVDGVDEEEEDEEGEDEEDEDDEDGEEEEFDEEDDEDEDVEGDEDDDEVSEEEEEFGLDEEDEDEDEDEEEEEGGKGEKRKRETDDEGEDD | – | – | ~9.5 | 3.9 | H3 binds both ANP32 proteins in a similar manner
